The values that follow come from publication doi:10.1101/2025.02.27.640524 (bioRxiv, 2025).

The target in this assay is T1, VelB-GFP (full length A. nidulans Velvet-like B fused to GFP) (Aspergillus nidulans, UniProt C8VTS4 1-369).
T1 sequence: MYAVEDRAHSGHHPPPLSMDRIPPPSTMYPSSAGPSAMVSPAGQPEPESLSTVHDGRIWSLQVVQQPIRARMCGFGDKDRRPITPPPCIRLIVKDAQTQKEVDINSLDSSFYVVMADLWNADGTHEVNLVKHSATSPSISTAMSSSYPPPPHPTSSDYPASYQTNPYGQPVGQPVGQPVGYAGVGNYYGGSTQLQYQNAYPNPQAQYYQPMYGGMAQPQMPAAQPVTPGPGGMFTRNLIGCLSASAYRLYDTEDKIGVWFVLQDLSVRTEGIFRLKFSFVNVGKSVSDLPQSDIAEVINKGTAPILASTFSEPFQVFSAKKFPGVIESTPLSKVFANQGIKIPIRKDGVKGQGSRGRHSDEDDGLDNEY
The assay can be described thus: co-IP.

B1: VosA-HA (A. nidulans VosA with HA tag) (natural protein)
chain: MSAANYPDPSLPRPSTSDDFELIVRQNPNRARVAGGKEKERKPVDPPPIVQIRVREEGTYLAQHYLQSPYFFMSCSLYDAQEDAPASIPPSTALTGTLVSSLHRLKDVDNTDGGFFVWGDLSIKVEGDFRLKFSLFEMRKTDVVFLKSIVSERFTVSPPKSFPGMAESTFLSRSFADQGVKLRIRKEPRTLIKRTAPRPEEYPQAAIPRSPSDRTAMQIPGSSYPAPPYQPTSRDYSYYAPVKRQRTSVDYGARGMYDADGRMRQMETYPQTATLYGQPGGYPTPMMGYPSGHGGVPDYAMSYGLPPSAQVPQMQDPAAQSRSSQQATMQSLGMVNPPGTPTPDSARAMMQQAYPRPQYSASTAVLPPLQQSRNYPQGTNGATRGYYEQSPQATPILPSQPLGTSEAERYGVPPGHTGYDHTGSANGTPR
For B1, the “fold abundance of co-precipitated VosA against the VelB^ΔIDD-GFP strain” value is 10 fold.
